B1: NifD (α subunit) of the Strep-inhibited α-C45A/L158C MoFe protein (natural protein, Azotobacter vinelandii)
chain: GMSREEVESLIQEVLEVYPEKARKDRNKHLAVNDPAVTQSKKAIISNKKSQPGLMTIRGCAYAGSKGVVWGPIKDMIHISHGPVGCGQYSRAGRRNYYIGTTGVNAFVTMNFTSDFQEKDIVFGGDKKLAKLIDEVETLFPLNKGISVQSECPIGCIGDDIESVSKVKGAELSKTIVPVRCEGFRGVSQSLGHHIANDAVRDWVLGKRDEDTTFASTPYDVAIIGDYNIGGDAWSSRILLEEMGLRCVAQWSGDGSISEIELTPKVKLNLVHCYRSMNYISRHMEEKYGIPWMEYNFFGPTKTIESLRAIAAKFDESIQKKCEEVIAKYKPEWEAVVAKYRPRLEGKRVMLYIGGLRPRHVIGAYEDLGMEVVGTGYEFAHNDDYDRTMKEMGDSTLLYDDVTGYEFEEFVKRIKPDLIGSGIKEKFIFQKMGIPFREMHSWDYSGPYHGFDGFAIFARDMDMTLNNPCWKKLQAPWEASEGAEKVAASA
peptide: GGGWSHPQFEK
modifications: C158 joined by thiol-maleimide Michael addition to the peptide maleimide-GGGWSHPQFEK | N-terminal maleimide, joined to C158 of the α subunit
notes: Nitrogenase molybdenum-iron protein alpha chain (NifD, α subunit), Azotobacter vinelandii; The α chain of m2, written alone; in the sample only part of the α subunits carry the peptide; also called Strep-modified α subunit

What was measured:
[1] = molecular target: Strep-inhibited α-C45A/L158C MoFe protein (Azotobacter vinelandii) (UniProt P07328); test: SEC; analytical gel filtration of MoFe protein pre-treated with 5 molar equivalents of L127Δ Fe protein
[2] = molecular target: T1, NifK (ß subunit) of the MoFe protein (Azotobacter vinelandii, UniProt P07329 1-523); test: native gel or EMSA; anoxic native-PAGE of the MoFe protein alone; conditions: both partners purified
T1 construct: Nitrogenase molybdenum-iron protein beta chain (NifK, ß subunit), Azotobacter vinelandii; The ß chain of m1 and m2, written alone; also called ß-subunit/NifK; source: A. vinelandii strain M1 (derivative of RS1), purified as part of the MoFe protein (HisTrap HP, Q-Sepharose)
T1 sequence: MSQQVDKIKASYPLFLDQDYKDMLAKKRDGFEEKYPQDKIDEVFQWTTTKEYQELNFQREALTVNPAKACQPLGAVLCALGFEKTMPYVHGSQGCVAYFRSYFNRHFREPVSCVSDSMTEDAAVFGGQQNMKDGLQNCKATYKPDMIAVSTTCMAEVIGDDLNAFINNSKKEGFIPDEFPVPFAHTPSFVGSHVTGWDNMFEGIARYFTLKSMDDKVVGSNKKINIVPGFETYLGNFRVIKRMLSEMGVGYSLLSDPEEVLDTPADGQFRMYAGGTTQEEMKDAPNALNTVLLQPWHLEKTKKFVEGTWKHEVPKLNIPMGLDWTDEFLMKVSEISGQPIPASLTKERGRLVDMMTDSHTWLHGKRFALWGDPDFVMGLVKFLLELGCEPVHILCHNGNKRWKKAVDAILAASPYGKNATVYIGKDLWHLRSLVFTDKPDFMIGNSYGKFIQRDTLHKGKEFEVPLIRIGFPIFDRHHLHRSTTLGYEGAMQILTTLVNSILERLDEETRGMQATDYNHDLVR

| Molecule | percent of the broadened MoFe peak that is MoFe:Fe1 complex (multi-Gaussian peak analysis) [1] [%] | binding result [2] |
| --- | --- | --- |
| L127Δ Fe protein (non-ATP-hydrolyzing NifH2 mutant) (enzyme) | 68 |  |
| B1 |  | binds |
